Test: label from the status in PepcDB records

Sequence	protein production
MVVSVLMPTYNHERFIEQAILSFIQQQVDFDIELLIGDDCSSDNTSFIARIYAEKYPNKIHLFQYSVNRGLMHNYKYLLNQAKGKYIAILESDDIWLDPFKLHKQVEIIEKTPNCGLVFSNWIVIDADSKEVTRSQRTLKTIGYSDLLKSNMVAAVTVLFSRNMFDLYCDIDEYILRNFKTLDYPVWLSISAHSNIIYLDDYTAGYRCLSTSISNSNSYQRSMAFNQSIDAIVQYVVSKYGKGELTIKELENASKLRYLTQAFQFKKFSQAFSIAWTFHATNIKSFIIKVLPFIWLCKNRKLIGQRLK	failed
MVVTCPKCGAKNRLGTPPPGQVPVCGACKTPLPWVVEADEKGFAQEVAGAPLTLVDFFAPWCGPCRLVSPILEELARDHAGRLKVVKVNVDEHPGLAARYGVRSVPTLVLFRRGAPVATWVGASPRRVLEERLRPYLEGR	not failed
MVVVTGREPDSRRQDGAMSSSDAEDDFLEPATPTATQAGHALPLLPQEFPEVVPLNIGGAHFTTRLSTLRCYEDTMLAAMFSGRHYIPTDSEGRYFIDRDGTHFGDVLNFLRSGDLPPRERVRAVYKEAQYYAIGPLLEQLENMQPLKGEKVRQAFLGLMPYYKDHLERIVEIARLRAVQRKARFAKLKVCVFKEEMPITPYECPLLNSLRFERSESDGQLFEHHCEVDVSFGPWEAVADVYDLLHCLVTDLSAQGLTVDHQCIGVCDKHLVNHYYCKRPIYEFKITWW	failed
MVWFLILQLIVLLILVAFSATLMAKGTRELERSFGKGIAGGLILGFINALPETIIVIQAVLNGFYDIALGSALGGNILLLTLGIGLISIFYYLKYKSNIITLDSDINIEYSSFLLAVIILGIAIVYGKLNYYIGLFLLSPYIYYIYRRYKNYRGILKNEKNKGNAIKGLAYVMIGGLPLIFISKYLISTISSIASVFNVQPLILAILITPIAAELEENLTAIKLISDSPSSATTALMNFIGSKLENMTLLLSIIGISQTVSLRPSLLYLLLILATSLLALGIIKDRNIKVKEGLSLFGIYAILIAILLRFSA	failed
MVWLAVFLAVLGAFFLAIGAQRQGSAVKADTGGLALSSNGFLRLLRNPRWMLGLLFLALGMVMNAVALVSAPLTVVQPIGAIALVITTVVNAKDQGLSINRATVVAISACVTGSALFVLLAVNVTQENHHVNTEDELTIVLLLALAVGIFGTLAVVFRHRMSAFVYILGAGVLFGFVAVLTRIIGKHLLDPNGLFLLNVQWYTLIAIVAAGGLGSWFVQSAYSGGPPDLVIAGLTVIDPMVGIAIGIVILGELRPDVHAVMAIAMAAAATLAIVGVIALSRHHPEVTKRKKDAKAAASRKA	failed
MVYLMLCLKIWRVVLKKNKTLVFISLFLLSVFLGGFYFYFDPNILYLLKGEKDFSKLIMGIDFYIDKKKFADAKKAMLFSSYYANTEFKWLALAKRAKLWALNTGDYHLMGEIVNLGVKVLPGNLKLRALEVYSKLKIGLLKDAYRIANEYLLNSEEYQGLYDEVFIKNLSSDNGILDFNKFIDKIYKEKDARIFEEIGLNLKNNAFLINAMLLYIEKKNIDSAKRILFRIKEDKSFLKELAYISYNLNDLDYTISNLKSIKNEEDPTLLFLLADAYFKKGDIKNAKNEYLKLYTRFPDYNVLVYLNLALIANSENDYKRAISYLNKANEVFKDNKIINYYLANIYFGIKNYFKANEIIANYKEDPLFFKLYFALNYANSKYEAKKSYLWRLFYKTEYNSSIAQFLAWNLLLYSDLKDLDLFFRIYNFSENKQDWYDFYKFYYYFLKRDFISSKKIIFDNKSQKYMFGIYYNLGVLSFSEKDYEEAERYFNKGISLLPSSFYDKDSTTPYERELVSKIYLKQGINYLYLGKMEKGKESILASYSFYETDEGRLYKNMIDTLRERNLNFD	failed
MVYWEYKINQTRRVMKNLKFQSVFDIIGPVMVGPSSSHTAGAVRIGKIVSAIFGDAPTEVEFQLFNSFAKTYRGHGTDVALVAGILGMETDDPDIPHALDIAHEKGIKVYWKINKDSKAPHPNTTRITLKNATKTISATGISIGGGNIQVTELNGF	not failed
MWAFPERFEGRHVRLEPLALAHLPAFLRHYDPEVYRFLSRAPVAPTEEALRAHLEGLLGEPGRVNWAILFGKEVAGRISVIAPEPEHAKLELGTMLFKPFWGSPANKEAKYLLLRHAFEVLRAERVQFKVDLRNERSQRALEALGAVREGVLRKNRRLPDGAFRDDVVYSVLKEEWPGVKARLEARLYGASGN	not failed
MWARTAAWVFGLPETLREICYRRDNVKPVDELQKTIGHRFGDMELLLTAMTHSSWANEQAVPVEHNERLEFLGDAVLELCVSEELFRRFPSAREGDLTRMRSRLVSKPSLEGVARELRLDMSLRLGKGEESQGGRERGSLLSDALEAMLGAVFLDAGYIAAKGVVMRILGPHFPEALVPVRTKDYKSQLQELTQKLFRDRPVYTLLGSSGPEHDKQFDVRVVLPDGTVFEATGPSMKRAEQMAAARAVATLDK	failed
MWIVLWPGLTGLPDSLVLLARVGGCSVLYDTGSGEPGSIVALAANLASAGVKPWSINVAIVSHAHVPSSGGARWLHDNHRVTIAARRPDSRWIEEGDPVKTAAVDYGLPTKPVPIGLELEREGRMPGECEGVEVLFTPGHTPGSVSVSLDTGDATVLAVSDALGRLKRDWGSSEREWMESLDKISSRDPDYLCTSVTCMDRRAAKAFLDEIREKGPVWDVENSSGDGPG	failed
MWKKKIVLSFLFYLISALGISLTIQAGVGVSSFNAFNVTFATLTHLKVGTVTTAINFAFLGTCWLLDQQRKIQDYLIILVALIGFGFVINFFLYQLFGSLVFQNYLVKIVLFILGTIIAGIGTGQVVALGVLQFPIEKFCTLISERTRYSFQFYRYLVDIFCVSLALGLSISYHLPIFVREGTVISLFLLSWVISWSRKRGQQRILRIQIKKLESE	failed
MWNYQKNILVCMIAGLGLSTCTPSDVSIPGAATIDVMNGFPDGESGYALGVSGCYAGKLGDFLLMAGGCNFPDKPVSEGGIKHYYKGIYIARVDDSSSLRWVKAGELPMEAAYGATVSLPDRLIFIGGSNSSDRFSSVLSFSFDCMKDSGLICETLPPLPHAVDNMSATLLGDTLYVLGGNRNGIPSSSMFSLCLDNYSAGWTEVPFPGRPRVQPVCSSLLGKLYVFGGFTSGGDASVSTDGLCYHPESGQWQVVKAPLTTKGEPLTLTGGASVSYGDVLLICAGGVNRDIFEDAISARYQMVRESEYLLQPIEWYRFNDQLLAYNVRSGEWIRIGVPSPMLARAGSSLVVFGDILFYIGGELKPGVRTPGICRISLQK	failed
MWSYDKITDYLMNNLGEKRYKHSLGVMDTAVRLAGIYNEDTEKARIAGLVHDCAKKLPGEKIIEICTNEGYELGDEDIRNSYLLHGLAGRILAKKVIGIDDEDVLNAIEFHTTGRPNMSLLEKIIYIADYIEPGREFKGVDELRKAADEDLNKALLMSFDNTIKFVIDKGGFLHHNTIEARNYLISRKG	not failed
MWTRLLPFLAWLPGLHRGMLGREAWVGLNGAILALPQSMAYALIAGLPAEYGLYAAMLPVAIACLWGSSRYLVSGPTAAISVLLFSSVAPLAPLGSPQYVQAVLLLTFLAGAFQWLLGVLRVGSLVNFVSHSVMLGFTLGAALLIVLGQLPYLLGLAASGEGAAPGNGWRLLARFAEFDGPSLLVGGFSFALSLLVRRLRPRWPALLLGLLGGATLVWALPGTFASVAHVQALSSALPGWSPLVFDSRSILDLLPAAVACGMLGLVTSLSIARALAARQGDAFDANQEVRAQGLSNLLGPWLSASLSAGSFTRSGLNLEAGARSPLAGAFSALWVALLAVLGARLIEHVPLPAMAAGILLIAWGLIDRPALRALYRSGRAECLVAGLTALATLLLPLQNAIYAGVLASLVFYLRRTSTPRVLRQRNDEEEVLRIEGSIFFGACDYLQRLMRQCDRPRLVLDARQVNFIDFAGAVLLQQEARRLHAEGRRLVLRHARPQVREALGRQADEGCRLHYEG	failed
MWVYRLKGTLEALDPILPGLFDGGARGLWEREGEVWAFFPAPVDLPYEGVWEEVGDEDWLEAWRRDLKPALAPPFVVLAPWHTWEGAEIPLVIEPGMAFGTGHHETTRLALKALARHLRPGDKVLDLGTGSGVLAIAAEKLGGKALGVDIDPMVLPQAEANAKRNGVRPRFLEGSLEAALPFGPFDLLVANLYAELHAALAPRYREALVPGGRALLTGILKDRAPLVREAMAGAGFRPLEEAAEGEWVLLAYGR	not failed
